Source: patent publication US20030041342

Target: maize CDK (cyclin-dependent protein kinase) from immature ear extract

B1: GST-ZMWEE1 (glutathione S-transferase ZMWEE1 fusion protein, from pGEX2Tzmwee1, made in E. coli) (protein)
chain: CTPDYITPEMPQVANEFDDDDKENIPCPKSPEKSANPRSKRYRTDCSPKAREVTDFSFDHQITPVLFDSLTRDDSEEEQPKQPALEKRGGYVSQSAVALRCRVMPPPCVKNPYLNTDPCIDAAVYGGRQCNSAVFSPSIGGNGLSRYRTDFHEIEKIGYGNFSVVFKVLNRIDGCLYAVKRSIKQLHNDMERRQAVKEVQAMAALGSHENIVRYFTSWFENEQLYIQMELCDRCLSMNRNQPVKRGEALELLYQICKGLDFMHERGIAHLDVKPDNIYVRNGIYKLGDFGCATLVNRSLAIEDGDSRYMPPEMLNDKYEHLDKVDIFSLGAAVYELIRGTPLPESGSHFTSIREGKIALLPGCPMQFQSLIKSMMDPDPVRRPSAKEILRHPSFDKLHKASSK
  CDK activity (histone H1 kinase activity) of CDK adsorbed by p13^suc1: GST-ZMWEE1, with or without pre-incubation, inhibited CDK activity
  histone H1-kinase activity in crude immature ear extract: GST-ZMWEE1 inhibits the histone H1-kinase activity in the extract
